These results are taken from PMC10987413.

In the data set the target is GST-DCL3 F5 (UniProt Q9LXW7). Briefly: MST. As to conditions: MST: 50 mM Tris-HCl pH 7.4, 150 mM NaCl, 10 mM MgCl2, 0.01% Tween 20, 100 nM RED-NHS labelled protein, incubation 5 min at room temperature (instrument printed …).
UniProt Q9LXW7, sequence (Q9LXW7 whole entry): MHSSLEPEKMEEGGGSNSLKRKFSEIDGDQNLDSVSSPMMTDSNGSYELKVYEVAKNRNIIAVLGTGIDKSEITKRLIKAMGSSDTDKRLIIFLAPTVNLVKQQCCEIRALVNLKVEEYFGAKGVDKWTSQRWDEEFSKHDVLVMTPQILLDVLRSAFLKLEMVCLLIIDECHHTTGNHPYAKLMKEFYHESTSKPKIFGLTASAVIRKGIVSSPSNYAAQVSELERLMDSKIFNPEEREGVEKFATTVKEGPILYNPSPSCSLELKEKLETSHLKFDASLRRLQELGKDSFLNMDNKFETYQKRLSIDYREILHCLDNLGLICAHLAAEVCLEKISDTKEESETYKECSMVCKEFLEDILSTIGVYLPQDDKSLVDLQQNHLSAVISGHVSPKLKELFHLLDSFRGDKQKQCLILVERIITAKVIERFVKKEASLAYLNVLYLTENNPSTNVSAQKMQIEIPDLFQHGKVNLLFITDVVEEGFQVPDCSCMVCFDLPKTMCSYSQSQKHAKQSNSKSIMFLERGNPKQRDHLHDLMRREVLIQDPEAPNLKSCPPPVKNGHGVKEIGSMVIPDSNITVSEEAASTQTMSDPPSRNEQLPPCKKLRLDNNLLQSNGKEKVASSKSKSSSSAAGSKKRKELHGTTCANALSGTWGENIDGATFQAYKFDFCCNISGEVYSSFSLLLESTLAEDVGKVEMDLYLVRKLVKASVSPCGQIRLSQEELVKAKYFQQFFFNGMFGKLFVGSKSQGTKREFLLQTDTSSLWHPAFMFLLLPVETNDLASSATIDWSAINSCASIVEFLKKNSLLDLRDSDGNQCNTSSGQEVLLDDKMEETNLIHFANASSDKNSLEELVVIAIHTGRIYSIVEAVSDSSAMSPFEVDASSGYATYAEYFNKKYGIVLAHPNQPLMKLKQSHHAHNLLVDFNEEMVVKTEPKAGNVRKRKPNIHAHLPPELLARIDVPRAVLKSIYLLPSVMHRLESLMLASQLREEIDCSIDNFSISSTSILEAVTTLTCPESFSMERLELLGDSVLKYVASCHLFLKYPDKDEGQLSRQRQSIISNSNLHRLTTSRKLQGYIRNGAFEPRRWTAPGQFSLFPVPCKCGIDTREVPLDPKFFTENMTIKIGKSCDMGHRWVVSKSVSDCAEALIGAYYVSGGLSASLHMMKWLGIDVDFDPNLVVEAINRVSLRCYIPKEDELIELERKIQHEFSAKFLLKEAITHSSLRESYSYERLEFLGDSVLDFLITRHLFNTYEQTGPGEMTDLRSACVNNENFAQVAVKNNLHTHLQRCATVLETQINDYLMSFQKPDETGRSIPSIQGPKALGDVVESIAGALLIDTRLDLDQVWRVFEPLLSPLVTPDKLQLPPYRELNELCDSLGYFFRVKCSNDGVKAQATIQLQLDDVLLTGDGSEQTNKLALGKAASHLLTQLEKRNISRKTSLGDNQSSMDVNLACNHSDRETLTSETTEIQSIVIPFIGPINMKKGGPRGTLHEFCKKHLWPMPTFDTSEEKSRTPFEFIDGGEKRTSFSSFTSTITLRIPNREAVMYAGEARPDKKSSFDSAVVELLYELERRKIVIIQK
21-nt ss-sRNA: the Kd amounted to 1870 nM.

Substance “UCAACAGGAUCGAGCUUAAGG / UUAAGCUCGAUCCUGUUGACG [21-bp ds-sRNA (ds siRGFP)]” yielded a Kd of 575 nM.

Substance “UACAAGACACGUGCUGAAGUCAAGUUUGAGGGAACACCCUCGUCAACAGGAUCG / AUCCUGUUGACGAGGGUGUCUCCCUCAAACUUGACUUCAGCACGUGUCUUGUAGU [55-bp ds-sRNA]” returned a Kd of 582 nM.

Substance “UCGCUUGGUGCAGGUCGGGAA / CCCGCCUUGCAUCAACUGAAU [miR168a duplex]” had an equilibrium dissociation constant (Kd) of 1060 nM.

On to “UGAAUUUCUGGUAUGGGUCCCGCC / CGGGACCCAUACCAGAAAUUCAUC [24-bp ds-sRNA (dsAtSN1)]”, for which the Kd was 553 nM.

24-nt ss-sRNA returned a Kd of 1220 nM.

Regarding “AGAAUCUUGAUGAUGCUGCAU / GUGGCAUCAUCAAGAUUCACA [miR172a duplex]”, the dissociation constant Kd was 927 nM.

Substance 55-nt ss-sRNA came in with a Kd of 1160 nM.
